# T1: BMP-7 (UniProt P18075 293-431)
# T1 sequence (looked up): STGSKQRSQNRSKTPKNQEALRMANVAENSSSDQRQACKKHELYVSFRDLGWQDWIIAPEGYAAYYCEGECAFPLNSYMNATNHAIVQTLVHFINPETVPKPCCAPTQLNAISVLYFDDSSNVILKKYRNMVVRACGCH
# B1: human recombinant BMPR-II ECD, wild type (domain or fragment, UniProt Q13873 26-150, looked up)
# chain: ASQNQERLCAFKDPYQQDLGIGESRISHENGTILCSKGSTCYGLWEKSKGDINLVKQGCWSHIGDPQECHYEECVVTTTPPSIQNGTYRFCCCSTDLCNVNFTENFPPPDTTPLSPPHSFNRDET
# B2: BMPR-II ECD S107P (domain or fragment, human, UniProt Q13873 26-150, looked up)
# chain: ASQNQERLCAFKDPYQQDLGIGESRISHENGTILCSKGSTCYGLWEKSKGDINLVKQGCWSHIGDPQECHYEECVVTTTPPPIQNGTYRFCCCSTDLCNVNFTENFPPPDTTPLSPPHSFNRDET
# B3: BMPR-II ECD Y40P (domain or fragment, human, UniProt Q13873 26-150, looked up)
# chain: ASQNQERLCAFKDPPQQDLGIGESRISHENGTILCSKGSTCYGLWEKSKGDINLVKQGCWSHIGDPQECHYEECVVTTTPPSIQNGTYRFCCCSTDLCNVNFTENFPPPDTTPLSPPHSFNRDET
# B4: BMPR-II ECD Y40Q (domain or fragment, human, UniProt Q13873 26-150, looked up)
# chain: ASQNQERLCAFKDPQQQDLGIGESRISHENGTILCSKGSTCYGLWEKSKGDINLVKQGCWSHIGDPQECHYEECVVTTTPPSIQNGTYRFCCCSTDLCNVNFTENFPPPDTTPLSPPHSFNRDET
# B5: GDF-5 (ligand, UniProt P43026 382-501, looked up)
# chain: APLATRQGKRPSKNLKARCSRKALHVNFKDMGWDDWIIAPLEYEAFHCEGLCEFPLRSHLEPTNHAVIQTLMNSMDPESTPPTCCVPTRLSPISILFIDSANNVVYKQYEDMVVESCGCR
# B6: BMPR-II ECD Y40R (domain or fragment, human, UniProt Q13873 26-150, looked up)
# chain: ASQNQERLCAFKDPRQQDLGIGESRISHENGTILCSKGSTCYGLWEKSKGDINLVKQGCWSHIGDPQECHYEECVVTTTPPSIQNGTYRFCCCSTDLCNVNFTENFPPPDTTPLSPPHSFNRDET
# B7: BMPR-II ECD Y40G (domain or fragment, human, UniProt Q13873 26-150, looked up)
# chain: ASQNQERLCAFKDPGQQDLGIGESRISHENGTILCSKGSTCYGLWEKSKGDINLVKQGCWSHIGDPQECHYEECVVTTTPPSIQNGTYRFCCCSTDLCNVNFTENFPPPDTTPLSPPHSFNRDET
# B8: BMPR-II ECD G47N (domain or fragment, human, UniProt Q13873 26-150, looked up)
# chain: ASQNQERLCAFKDPYQQDLGINESRISHENGTILCSKGSTCYGLWEKSKGDINLVKQGCWSHIGDPQECHYEECVVTTTPPSIQNGTYRFCCCSTDLCNVNFTENFPPPDTTPLSPPHSFNRDET
# Experiments:
# Assay in all cases: SPR
# BMP-7 = target: T1, BMP-7
# [1] = target: B1
# BMPR-II ECD Y40P = target: B3
# BMPR-II ECD Y40R = target: B6
# BMPR-II ECD S107P = target: B2
# BMPR-II ECD Y40G = target: B7
# BMPR-II ECD Y40Q = target: B4
# BMPR-II ECD G47N = target: B8
# GDF-5 = target: B5
# Activin = Activin (UniProt P08476 311-426)
binder,measurement,setting,value
B1,Kd,BMP-7,135 µM
B2,Kd,BMP-7,43 µM
B3,Kd,BMP-7,157 µM
B4,Kd,BMP-7,129 µM
B5,Kd,[1],221 µM
same,Kd,BMPR-II ECD Y40P,200 µM
same,Kd,BMPR-II ECD Y40R,117 µM
same,Kd,BMPR-II ECD S107P,90 µM
same,Kd,BMPR-II ECD Y40G,123 µM
same,Kd,BMPR-II ECD Y40Q,175 µM
same,Kd,BMPR-II ECD G47N,136 µM
B6,Kd,BMP-7,117 µM
B7,Kd,BMP-7,138 µM
B8,Kd,BMP-7,92 µM
Chimera BAB: BMPR-II ECD with the ActR-IIB A-loop (domain or fragment) ASQNQERLCAFKDPYQQDLGIGESRISHENGTILCSKGSTCYGLWEKSKGDINLVKQGCWDDFNCYDRQCVVTTTPPSIQNGTYRFCCCSTDLCNVNFTENFPPPDTTPLSPPHSFNRDET,Kd,BMP-7,59 µM
same,Kd,GDF-5,197 µM
same,Kd,Activin,5 µM

# Source: publication PMC3481545 (Biochemistry, 2012)
